# Data from patent publication US20260078185A1 (DYNAMICURE BIOTECHNOLOGY, published 2026).
# Positions count from the first letter of the chain named.
# T1: mouse VISTA recombinant protein (Sino Biological Inc., Cat. #51550-M08H), biotinylated (mouse, UniProt Q9D659 33-191, biotinylated using EZ-LINK NHS-PEG4 biotin)
# T1 construct: Bought protein; also called mouse VISTA protein
# T1 sequence (looked up): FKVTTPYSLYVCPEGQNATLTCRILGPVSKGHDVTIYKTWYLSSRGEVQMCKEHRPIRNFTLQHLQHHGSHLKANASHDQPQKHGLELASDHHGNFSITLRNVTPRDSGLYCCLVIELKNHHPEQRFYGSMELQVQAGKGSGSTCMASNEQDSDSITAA
# T2: Human VISTA recombinant protein (Sino Biological Inc., Cat. #13482-H08H), biotinylated (human, UniProt Q9H7M9 33-194, biotinylated using EZ-LINK NHS-PEG4 biotin)
# T2 construct: Bought protein
# T2 sequence: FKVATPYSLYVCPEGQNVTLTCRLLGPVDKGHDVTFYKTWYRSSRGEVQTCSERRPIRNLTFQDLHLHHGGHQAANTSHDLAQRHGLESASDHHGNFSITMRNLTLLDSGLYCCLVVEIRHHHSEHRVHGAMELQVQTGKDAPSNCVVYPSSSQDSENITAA
# T3: mouse VISTA expressed on Jurkat cells (mouse, UniProt Q9D659 33-308)
# T3 construct: whole, on cells; also called Jurkat-mouse VISTA; mouse VISTA expressing cells
# T3 sequence (looked up): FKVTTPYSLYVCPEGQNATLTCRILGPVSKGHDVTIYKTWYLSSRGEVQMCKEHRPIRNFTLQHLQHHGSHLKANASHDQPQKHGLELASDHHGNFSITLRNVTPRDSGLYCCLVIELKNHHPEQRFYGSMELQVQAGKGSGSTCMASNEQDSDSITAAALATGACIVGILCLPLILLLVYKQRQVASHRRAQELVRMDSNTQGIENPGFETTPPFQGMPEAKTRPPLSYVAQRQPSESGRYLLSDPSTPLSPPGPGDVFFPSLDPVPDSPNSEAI
# B1: 9F9 humanized anti-VISTA antibody VH7/VL7 (antibody, V domains shown)
# VH: QVQFVQSGAEVKKPGASVKVSCKASGYTFTGYWMQWVKQAPGQRLEWIGAIYPGDGDTRYSQKFKGKVTLTADTSASTAYMELSSLRSEDTAVYYCARRDYGAWFAYWGQGTLVTVSS
# VL: DIKVTQSPSSLSASVGDRVTITCKASQDINSYLSWYQQKPGKAPKTLIYRANRLVDGVPSRFSGSGSGQEYTLTISSLQPEDFATYYCLQYDEFPYTFGQGTKVEIK
# notes: also called 9E9 anti-VISTA VH7/VL7
# B2: 9F9 humanized anti-VISTA antibody VH9/VL9 (antibody, V domains shown)
# VH: B1 VH with A16S, T30S, R44G, T74E, A76T
# VL: B1 VL with E70D, L73F, F83I
# notes: also called 9E9 anti-VISTA VH9/VL9
# B3: 9F9 parental anti-VISTA antibody (VH0/VL0) (antibody, V domains shown)
# VH: QVQFQQSGAELARPGASVKLSCKASGYTFTGYWMQWVKQRPGQGLEWIGAIYPGDGDTRYSQKFKGKVTLTADKSSSTAYMQLSSLASEDSAVYYCARRDYGAWFAYWGQGTLVTVSA
# VL: DIKVTQSPSSMYASLGERVTITCKASQDINSYLSWFQQKPGKSPKTLIYRANRLVDGVPSRFSGSGSGQDYSLTISSLDYEDMGIYYCLQYDEFPYTFGGGTKLEIK
# notes: also called 9E9 parental antibody; parental 9F9 (VH0/VL0)
# B4: 9F9 humanized anti-VISTA antibody VH14/VL15 (antibody, V domains shown)
# VH: QVQLVQSGAEVMKPGASVKISCKASGYTFTGYWMQWVRQRPGQGLEWIGAIYPGDGDTRYSQKFKGKATMTADTSISTAYMELSRLRSDDTAVYYCARRDYGAWFAYWGAGTTVTVSS
# VL: DIVMTQSPSSLSASVGERVTITCKASQDINSYLSWFQQKPGKAPKTLIYRANRLVDGVPSRFSGSGSGTDFTFTISSVQPEDLAIYYCLQYDEFPYTFGGGTKLEIK
# notes: also called 9E9 anti-VISTA VH14/VL15
# B5: 9F9 VH15/VL15 hIgG2 (antibody, V domains shown)
# VH: B4 VH with I20L, R38K, T91S
# VL: B4 VL
# notes: also called 9E9 VH15/VL15 using the IgG2 constant region
# B6: 9F9 VH15/VL15 hIgG1-LALA (antibody, V domains shown)
# VH: B4 VH with I20L, R38K, T91S
# VL: B4 VL
# notes: also called 9E9 VH15/VL15 using the humanized hIgG1-LALA constant region
# B7: 9F9 humanized anti-VISTA antibody VH15/VL15 (antibody, V domains shown)
# VH: B4 VH with I20L, R38K, T91S
# VL: B4 VL
# notes: also called 9E9 anti-VISTA VH15/VL15
# Columns and labels:
# [1] = molecular target: T1, mouse VISTA recombinant protein (Sino …); assay: BLI (Octet QKe), biotinylated VISTA on streptavidin sensors, antibody at 5 µg/ml
# Method: (§1) Method: The binding affinity of anti-VISTA antibodies was determined with bio-layer interferometry using Octet QKe (ForteBio). Human VISTA recombinant protein (Sino Biological Inc., Cat. #13482-H08H) mouse VISTA (Sino Biological Inc., Cat. #51550-M08H) were biotinylated using EZ-LINK NHS-PEG4 biotin (Thermo Fisher Scientific). Streptavidin biosensors (ForteBio) were used to load biotinylated VISTA protein (300 seconds at 5 μg/ml). The baseline measurement was stabilized for 60 seconds in 1× kinetics buffer (ForteBio) before anti-VISTA antibodies at 5 μg/ml were allowed to associate for 300 seconds with captured protein. Then the sensors were dissociated in 1× kinetics buffer for 600 seconds. Data analysis was performed on ForteBio Data Analysis HT 11.1 software.
# [2] = molecular target: T2, Human VISTA recombinant protein (Sino …); assay: as above
# Method: as §1
# [3] = molecular target: T1, mouse VISTA recombinant protein (Sino …); assay: BLI (Octet QKe), biotinylated VISTA on streptavidin sensors; the parental antibody is the affinity comparator
# Method: as §1
# [4] = molecular target: T3, mouse VISTA expressed on Jurkat cells; assay: flow cytometry on Jurkat cells expressing mouse VISTA (FIG. 3A-D); the parental antibody is the binding comparator
# [5] = molecular target: T3, mouse VISTA expressed on Jurkat cells; assay: flow cytometry on Jurkat cells expressing mouse VISTA (FIG. 3E)
binder,measurement,setting,value
B1,binding result,[1],binds
B2,binding result,[1],binds
B3,binding result,[2],binds
same,binding result,[3],binds
same,binding result,[4],binds
B4,binding result,[1],binds
B5,binding result,[5],binds
B6,binding result,[5],binds
B7,binding result,[1],binds
